{"source": "paper PMC10267149", "about": "“The structure of phosphatidylinositol remodeling MBOAT7 reveals its catalytic mechanism and enables inhibitor identification” (Nature Communications, 2023)", "proteins": {"B1": {"name": "MBOAT7 (Homo sapiens) (protein)", "chain": "MSPEEWTYLVVLLISIPIGFLFKKAGPGLKRWGAAAVGLGLTLFTCGPHTLHSLVTILGTWALIQAQPCSCHALALAWTFSYLLFFRALSLLGLPTPTPFTNAVQLLLTLKLVSLASEVQDLHLAQRKEMASGFSKGPTLGLLPDVPSLMETLSYSYCYVGIMTGPFFRYRTYLDWLEQPFPGAVPSLRPLLRRAWPAPLFGLLFLLSSHLFPLEAVREDAFYARPLPARLFYMIPVFFAFRMRFYVAWIAAECGCIAAGFGAYPVAAKARAGGGPTLQCPPPSSPEKAASLEYDYETIRNIDCYSTDFCVRVRDGMRYWNMTVQWWLAQYIYKSAPARSYVLRSAWTMLLSAYWHGLHPGYYLSFLTIPLCLAAEGRLESALRGRLSPGGQKAWDWVHWFLKMRAYDYMCMGFVLLSLADTLRYWASIYFCIHFLALAALGLGLALGGGSPSRRKAASQPTSLAPEKLREE", "notes": "full-length (1-472), C-terminal GFP-strepII removed by TEV; expressed in HEK293 freestyle cells; digitonin then amphipol PMAL-C8; monomer, 53 kDa"}}, "substrate": "CCCCC/C=C\\C/C=C\\C/C=C\\C/C=C\\CCCC(=O)SCCNC(=O)CCNC(=O)[C@H](O)C(C)(C)COP(=O)(O)OP(=O)(O)OC[C@H]1O[C@@H](n2cnc3c(N)ncnc32)[C@H](O)[C@@H]1OP(=O)(O)O", "assay": "fluorescence assay of CoA-SH release with CPM", "assay_type": "biochemical, Homo sapiens", "conditions": "PMAL-C8 reconstituted, 100 µM lyso-PI, pH 7.5, 37 °C, 2 mg/ml BSA", "data": [{"protein": "B1", "values": [{"measurement": "Km", "value": 46, "unit": "µM"}]}]}
